Data from the DeepSol protein solubility set.

Experiment: soluble on expression in E. coli; label from the status in PepcDB or PDB records

For “GPGSMSLWGGFSNPTSYSDSGLEKRLEFDFAAAVDVQTFAVEELEDVLAAAGQKLQHHFSAEGLLSLEMTQCIIILTPCKLVVTSASEVMLHQVITPTIALLTSKGVRVEWASYLRKNTTSPWCAESEMSDIMAQEYAELKAAFPAGKSFLTGPVDGHHCFNFVYDNVERIAGRKEEDVQVNVFLNDVAAGLEEVNKTTQRFHALQSGEYEVMRTFAGVPCISFETNAKAAVASPTRVQKLLDTFQPTHFTVAALQDRDADESALRCNFNAFTPYTLQNRTVNLFGEGYAFHQLLFARSAD”, which “soluble on expression in E. coli” value is on record?
Its value is “soluble”.

With “MGSDKIHHHHHHMTDSDLWIQVSDVRKHYAIGKSGLSDALVSAQSSANTGPGEKIAVDGISLTIRNGERLGIVGRNGAGKSTLLHMVAGLSAPTAGKIDVHGRVTAIMTLGLGLREHASGRENIYIDGEVQGKSRVEIDAVIDEIIEFAELGEFIDMPVRTYSTGMKSRLAFAMISCLEPEILIIDEALSAGDAKFSAKATRKIQEICAKGRIVILVSHSMASIQSMCNRCLWIDQGKIVMDGLPDQVCKAYIDAVRSEDEAKLLERFRDEASTRFSLDGWDVDALYVLQGDTATQRVLLEAGEDALIRTKIQVPTGCEEAQLVMSVTRLDGLVVTQRRIALDKYTEAGVARVQFAMRPLVLGQGVYRLEIAAELGQALVASRSMIFEVFVRQPPTGGVPMLLYPSEATASLLS” as the sequence, how does the “soluble on expression in E. coli” value read?
Its value is “not soluble”.

Which “soluble on expression in E. coli” value does the source give for “SLRYASDFEEIAVLGQGAFGQVVKARNALDSRYYAIKKIRHTEEKLSTILSEVMLLASLNHQYVVRYYAAWLERRNFVKPMTAVKKKSTLFIQMEYCENRTLYDLIHSENLNQQRDEYWRLFRQILEALSYIHSQGIIHRDLKPMNIFIDESRNVKIGDFGLAKNVHRSLDILKLDSQNLPGSSDNLTSAIGTAMYVATEVLDGTGHYNEKIDMYSLGIIFFEMIYPFSTGMERVNILKKLRSVSIEFPPDFDDNKMKVEKKIIRLLIDHDPNKRPGARTLLNSGWLPVKHQDEVIKEALKSL” here?
The value was “soluble”.

Which “soluble on expression in E. coli” value does the source give for “MKLNVDGLLVYFPYDYIYPEQFSYMRELKRTLDAKGHGVLEMPSGTGKTVSLLALIMAYQRAYPLEVTKLIYCSRTVPEIEKVIEELRKLLNFYEKQEGEKLPFLGLALSSRKNLCIHPEVTPLRFGKDVDGKCHSLTASYVRAQYQHDTSLPHCRFYEEFDAHGREVPLPAGIYNLDDLKALGRRQGWCPYFLARYSILHANVVVYSYHYLLDPKIADLVSKELARKAVVVFDEAHNIDNVCIDSMSVNLTRRTLDRCQGNLETLQKTVLRIKETDEQRLRDEYRRLVEGLREASAARETDAHLANPVLPDEVLQEAVPGSIRTAEHFLGFLRRLLEYVKWRLRVQHVVQESPPAFLSGLAQRVCIQRKPLRFCAERLRSLLHTLEITDLADFSPLTLLANFATLVSTYAKGFTIIIEPFDDRTPTIANPILHFSCMDASLAIKPVFERFQSVIITSGTLSPLDIYPKILDFHPVTMATFTMTLARVCLCPMIIGRGNDQVAISSKFETREDIAVIRNYGNLLLEMSAVVPDGIVAFFTSYQYMESTVASWYEQGILENIQRNKLLFIETQDGAETSVALEKYQEACENGRGAILLSVARGKVSEGIDFVHHYGRAVIMFGVPYVYTQSRILKARLEYLRDQFQIRENDFLTFDAMRHAAQCVGRAIRGKTDYGLMVFADKRFARGDKRGKLPRWIQEHLTDANLNLTVDEGVQVAKYFLRQMAQPFHREDQLGLSLLSLEQLESEETLKRIEQIAQQL” here?
The value was “not soluble”.

With “MMQMPKIGIIGGSGVYGVFEPKEVVKVHTPYGRPSAPIEIGEIEGVEVAFIPRHGKYHEFPPHQVPYRANIWALHELGVERVIAINAVGSLKEEYKPGDIVIIDQFIDFTKKREYTFYNGPKVAHVSMADPFCPELRKIFIETAKELNLPVHERGTYVCIEGPRFSTRAESRMFRQFADVIGMTLVPEVNLARELGMCYVNISTVTDYDVWAEKPVDAQEVLRVMKENEEKVQKLLKRAIPKIPEERKCGCADVLKTMFV” as the sequence, how does the “soluble on expression in E. coli” value read?
Its value is “soluble”.

With “MLRIAFASALRFVRRHSSVLQADFEGGVSQSHISRLERGESSVTLERLEEIAAHLNVHPLSLIALTWGASEQIPPAELLERVRRELESVEGLLRPIAIDDQPAVHPRIIEAEKVRNEVQRLKALGHTKAEISRLMGIAKSTAARHW” as the sequence, how does the “soluble on expression in E. coli” value read?
Its value is “not soluble”.

With “MSLEALKEVAGEAEGEKSAVITHRNADPDAVGAALVVREVLRALRMNPCLYSPEGISRQSKRLLEAVGEEFGPLCSPDENPLIAVVVDAANLSQIAGAESLFRAARLKVVIDHHERGSIHEEADVALVDPGAGSSSELAVKTAVEAGTPLRPSVATAALGGIVYDTGRFLRASKLSFEAAAHLLSMGADYGKVLEAGRQRGRRDRGDLSLRLAKLKAFSRLKIGRACSELLIAVTHIGSFESDVAKSLVDEAADVAVAVAERTSEFRLSVRVSPLALEKGVTARAIASMLAEKFGGEGGGHDEAGMAHIPYTAAFSAEDMAVKAFNLISGRLGWMCVKTLEKGEGGSHHHHHH” as the sequence, how does the “soluble on expression in E. coli” value read?
The value was “soluble”.

Which “soluble on expression in E. coli” value does the source give for “SPVSKCPKKSESLWKGWDRKAQRNGLRSQVYAVNGDYYVGEWEDNVKHGKGTQVWKKKGAIYEGDWKFGKRDGYGTLSLPDQQTGKCRRVYSGWWKGDKKSGYGIQFFGPKEYYEGDWCGSQRSGWGRMYYSNGDIYEGQWENDKPNGEGMLRLKNGNRYEGCWERGMKNGAGRFFHLDHGQLFEGFWVDNMAKCGTMIDFGRDEAPEPTQFPIPEVKILDPDGVLAEALAMFRKTEEGD” here?
The value was “soluble”.

For “MGSDKIHHHHHHMESLSEGTTAGYQQIHDGIIHLVDSARTETVRSVNALMTATYQEIGRRIVEFEQGGEARAAYGAQLIKRLSKDLCLRYKRGFSAKNLRQMRLFYLFFQHVEIHQTMSGELTPLGIPQTPSAEFPSAKIWQTLSAKSFPLPRSTYVRLLSVKNADARSFYEKETLRCGWSVRQLERQIATQFYERTLLSHDKSAMLQQHAPAETHILPQQAIRDPFVLEFLELKDEYSESDFEEALINHLMDFMLELGDDFAFVGRQRRLRIDDNWFRVDLLFFHRRLRCLLIVDLKVGKFSYSDAGQMNMYLNYAKEHWTLPDENPPIGLVLCAEKGAGEAHYALAGLPNTVLASEYKMQLPDEKRLADELVRTQAVLEEGYRRR”, which “soluble on expression in E. coli” value is on record?
Its value is “not soluble”.

For “MYDCAAPSLSTGRNTMNHTAELEKALTDLRHITGISMEIHAETEEEVTKALEQLKLLSSAYKEKYNKIHFLQSLMTDSIPTYNVYDRAARLHIAPEEPRILYLLETSHSLDEDISEILKNLFPSQSGAFRIPLTEASCAILCPVRSLADSSQETVHLTARMIVDTVNAEALARVRVSYSKTLHNLLDLSTAFRETSLALKVGKLFYSEQTVFPYNRLGIGRLIYRLPTSLCENFLHEIFGEEIPQALDEETTATVNKFLQNNLNIAETSRQLHMHRNTLIYRLEQIEKRTGLDLRQFEDAMTFKIASMVMNYLYTERNIPHE”, which “soluble on expression in E. coli” value is on record?
Its value is “not soluble”.

With “GMEKRLDYITDLMALGPTANARTIQRRQTAHRLAIAEAWQVKPGEKILEIGCGQGDLSAVLADQVGSSGHVTGIDIASPDYGAPLTLGQAWNHLLAGPLGDRLTVHFNTNLSDDLGPIADQHFDRVVLAHSLWYFASANALALLFKNMAAVCDHVDVAEWSMQPTALDQIGHLQAAMIQGLLYAIAPSDVANIRTLITPDTLAQIAHDNTWTYTAGTIVEDPTLDDAHWEIATTNALLTELKLSTDLRDRVKPLLEAMSHNGTASLATFTGRITF” as the sequence, how does the “soluble on expression in E. coli” value read?
Its value is “soluble”.

Which “soluble on expression in E. coli” value does the source give for “MGSDKIHHHHHHMMKSLPHMIGNEIKRIRKEKKMTQKELCDGICSQAEISKIENGRNSPTIDLLQQISKRLRVPLSLLFRDQLESDAFREADNHLSSLFREQKYQEMRLELLRTDAIHHNEIRLLKAYFTILLEVKTEKIDYRTASALLSRLTDQEDIWYESPKMFIRIKMAISNLHVENEQYHLAEKVYEELEELTYDTEELKKQLIKVYYNHSQLLTYEKKYKAGLKITEKGLSYSLSLNDASFIAHFYYQRGYYHEVMLGDDSSPAQRDYTISYALFRAFHLHTYEEIVLKGKERFLLFTF” here?
The value was “not soluble”.

Which “soluble on expression in E. coli” value does the source give for “MNKKNICALAVLSGLSFSAMALDCDPNLLPSWQDGASKTAIVNYVDQSTDASKKTFIPEQDRIAVFDNDGTLWSEKPYYFQLAFALDQVKNMAKEHPEWKTQEPFKSVLNNDIKNVFAGGEKALLDIVTATHSGMTVEEYQQTVAQWLEVAKDPHFNKAYTELTYKPMREMVTYLQDHDFKVYIVSGGGVDFMRTWAPEVYGIPEEQIIGSALKYKYDYNNSNPTVTKLGEILTIDDKAGKVENIQHIIGKKPVLAIGNSDGDHAMMQWATSQPNSMAMIVHHTDEAREWKYDRKSSVGHLDKAMDEANQRDNWYLIDMKNEWCTVY” here?
Its value is “soluble”.

Which “soluble on expression in E. coli” value does the source give for “QEQQQELAQLEMARSALDSLSELICLQDCQGNLLTTNRAFDQFWEGRREEAITATASRVATRKSERKWTTDTQGRSCLLEVNLSSLVSPSGELLGTLSISHDVT” here?
Its value is “not soluble”.
